According to the RNAGym collection of RNA variant scans (doi:10.7554/elife.80360):

B1: HDV Ribozyme (parent)
chain: GGCCGGCAUGGUCCCAGCCUCCUCGCUGGCGCCGGCUGGGCAACAUUCCGAGGGGACCGUCCCCUCGGUAAUGGCGAAUGGGACCCA

Variants of: B1
Test: self-cleavage, relative activity (ratio to wild type); higher = more cleavage; co-transcriptional

First: C19G G82A
Second: C7G A45C
The self-cleavage of the first is higher: 0.102 for the first, 0 for the second.

Compared with U69C C86U, C33U A71U is lower in self-cleavage: 0.727 for the first, 0.65 for the second.

First: A16C C61G
Second: A8G C85U
The self-cleavage of the first is lower: 0.7 for the first, 1.06 for the second.

First: G10A A51C
Second: G31C U46C
The self-cleavage of the first is higher: 0.623 for the first, 0.178 for the second.

Compared with G28A G52A, U12C G31A is higher in self-cleavage: 0.0764 for the first, 0.237 for the second.

Compared with G34A A51U, C49G C75G is higher in self-cleavage: 0.174 for the first, 0.299 for the second.

First: C26A G29C
Second: G54C A70G
The self-cleavage of the first is lower: 0.104 for the first, 1.07 for the second.

Compared with C3A C84G, G28C G34C is lower in self-cleavage: 0.158 for the first, 0.156 for the second.

First: A51G C63G
Second: G52A C86U
The self-cleavage of the first is lower: 0.538 for the first, 0.816 for the second.

Compared with C15A A71G, A42G A87U is higher in self-cleavage: 0.443 for the first, 0.479 for the second.

Going from C63A A83G to G11C G74U, the self-cleavage falls from 0.712 to 0.0963.

First: G35A C36G
Second: G2C G82U
The self-cleavage of the first is higher: 0.35 for the first, 0 for the second.

First: U9A G35C
Second: C14A A16C
The self-cleavage of the first is lower: 0.44 for the first, 0.755 for the second.

Compared with G59U C85G, G6U U23A is lower in self-cleavage: 0.695 for the first, 0.466 for the second.

Going from U65A U69A to G35A C85A, the self-cleavage falls from 0.929 to 0.644.

Going from C4A G10U to U9C A56U, the self-cleavage rises from 0.0733 to 1.04.

Compared with A8U C41A, G10U C49A is higher in self-cleavage: 0.443 for the first, 0.554 for the second.

First: G40U A87C
Second: G68U C75G
The self-cleavage of the first is higher: 0.732 for the first, 0.228 for the second.

Going from U23G U27A to G50C G80C, the self-cleavage falls from 0.594 to 0.0906.

Compared with G52U G67A, G25C G59U is lower in self-cleavage: 0.265 for the first, 0.116 for the second.

Going from C66A G74A to U12A G35A, the self-cleavage falls from 0.519 to 0.0875.

First: G35C G50U
Second: C4A C13U
The self-cleavage of the first is higher: 0.272 for the first, 0.0739 for the second.

Compared with C32A G50U, C7G C84U is lower in self-cleavage: 0.178 for the first, 0 for the second.

Going from U47A G55U to G5C C18A, the self-cleavage falls from 1.01 to 0.0639.

First: G10C A70U
Second: A43C G68C
The self-cleavage of the first is higher: 0.65 for the first, 0.283 for the second.

Compared with G6C G31U, C30G G81A is higher in self-cleavage: 0 for the first, 0.0978 for the second.

First: G39U U79A
Second: U72A A78G
The self-cleavage of the first is lower: 0.148 for the first, 0.504 for the second.

Going from G59A C86G to C64U G82U, the self-cleavage falls from 1.01 to 0.486.

Going from U47G C48U to G5C G76U, the self-cleavage falls from 1.02 to 0.378.

Going from G2C C14G to C30A G53C, the self-cleavage rises from 0.0773 to 0.47.

Going from A45U U79C to G38U G54U, the self-cleavage rises from 0.26 to 0.325.

Compared with U12A A70U, A78G G80A is lower in self-cleavage: 0.332 for the first, 0.242 for the second.

Going from G17U C44A to C36U U47G, the self-cleavage rises from 0.323 to 0.665.

Going from U23A G68U to C41G C84U, the self-cleavage falls from 1.09 to 0.456.

Going from U46C G55C to U20G G29A, the self-cleavage falls from 0.554 to 0.161.

Compared with U65G C86A, A16G U27G is lower in self-cleavage: 0.988 for the first, 0.594 for the second.

First: G17C C30G
Second: A8U G17C
The self-cleavage of the first is higher: 0.684 for the first, 0.0755 for the second.

First: G39C C86A
Second: A45G G53C
The self-cleavage of the first is lower: 0.261 for the first, 1.05 for the second.

Going from U37C A43C to C22G U23C, the self-cleavage falls from 0.308 to 0.

Compared with U23A G34C, U37C C48G is higher in self-cleavage: 0.339 for the first, 1.04 for the second.

Going from U23A C30A to C3A C44U, the self-cleavage falls from 0.466 to 0.145.

Going from A43U G67U to G2U G67A, the self-cleavage falls from 0.499 to 0.0602.

Compared with U9G G73U, G55C U69C is higher in self-cleavage: 0.0831 for the first, 1 for the second.

Compared with G6C A71U, C7U C15A is higher in self-cleavage: 0.138 for the first, 0.256 for the second.

Going from G68A C86A to U12A C85A, the self-cleavage falls from 0.822 to 0.383.

Going from C30U C48U to C36U A51C, the self-cleavage rises from 0.506 to 0.665.

Compared with A43U G53U, C22G A71C is lower in self-cleavage: 0.492 for the first, 0.151 for the second.

Going from C24U C57G to C14G A70U, the self-cleavage falls from 0.779 to 0.529.

First: U23A G67C
Second: C13G G55U
The self-cleavage of the first is higher: 1.22 for the first, 0.0583 for the second.

First: U20A C64U
Second: G10C U46G
The self-cleavage of the first is lower: 0.138 for the first, 0.346 for the second.

First: U23A C63G
Second: C15A C61A
The self-cleavage of the first is higher: 0.877 for the first, 0.831 for the second.

Going from U12A A16G to G10U U27G, the self-cleavage rises from 0.383 to 0.465.

Going from C13A U37G to C44A U60C, the self-cleavage rises from 0.147 to 0.831.

Compared with U12C G50A, G17C C49U is lower in self-cleavage: 0.359 for the first, 0.332 for the second.

First: C15U G73U
Second: G17C G40U
The self-cleavage of the first is higher: 0.269 for the first, 0.196 for the second.

Going from G53C G73U to G50A C58G, the self-cleavage rises from 0.369 to 0.909.

First: G11U A43G
Second: U72A A87C
The self-cleavage of the first is lower: 0.0339 for the first, 0.81 for the second.

Compared with C64U C86U, C4A C75G is lower in self-cleavage: 0.772 for the first, 0.0396 for the second.

Going from C44A U47G to G11A G38A, the self-cleavage falls from 0.906 to 0.102.

First: U46C A56U
Second: G40C G53C
The self-cleavage of the first is higher: 1.09 for the first, 0.17 for the second.

Going from G29A G38U to U20A G25A, the self-cleavage falls from 0.113 to 0.0852.

Going from G17C G25C to G11C C44U, the self-cleavage falls from 0.0475 to 0.0437.

Compared with C26G A51G, G17C C84A is lower in self-cleavage: 0.997 for the first, 0.231 for the second.

Going from G17U C66G to U65A A71C, the self-cleavage rises from 0.464 to 0.767.

Compared with C15G U69A, U47A C64A is higher in self-cleavage: 0.604 for the first, 1.08 for the second.

Going from C3G C62A to A70U G73U, the self-cleavage falls from 0.789 to 0.169.

Compared with U60A G68U, A45U U69A is lower in self-cleavage: 1.11 for the first, 0.77 for the second.

First: G35U G39U
Second: C48U G67U
The self-cleavage of the first is lower: 0.0941 for the first, 1.27 for the second.

First: G11U C21G
Second: G53U G59A
The self-cleavage of the first is lower: 0.086 for the first, 1.14 for the second.

Going from U60C G68U to A43C C48G, the self-cleavage falls from 1.2 to 0.449.

First: C30G C86U
Second: U12A G74C
The self-cleavage of the first is lower: 0.0332 for the first, 0.135 for the second.

Going from G82U C86A to C13U G59A, the self-cleavage falls from 0.793 to 0.763.

Going from G53U U79G to G6A G40C, the self-cleavage falls from 0.405 to 0.232.

First: G38A G39C
Second: G31U C33U
The self-cleavage of the first is lower: 0.0923 for the first, 0.125 for the second.

Going from C41A A87G to G2A A42G, the self-cleavage falls from 0.883 to 0.0302.

Going from C4U U20C to G1U A83C, the self-cleavage rises from 0.0437 to 0.259.

Going from C30G A70C to A16G C61G, the self-cleavage rises from 0.106 to 0.962.

Going from G6C G39C to C22G C84A, the self-cleavage falls from 0.293 to 0.0369.

First: C15G C44A
Second: U20A U37A
The self-cleavage of the first is higher: 0.237 for the first, 0.0831 for the second.

Compared with C57G G82U, A43C G80A is lower in self-cleavage: 0.317 for the first, 0.124 for the second.

First: G1C G50A
Second: G74A A78G
The self-cleavage of the first is higher: 0.277 for the first, 0.111 for the second.

First: C4G C49G
Second: C4U U69A
The self-cleavage of the first is lower: 0.504 for the first, 0.623 for the second.

Going from U27G G73A to G2C U12A, the self-cleavage falls from 0.396 to 0.17.

With G6C U37G the self-cleavage was 0.0923.
